Measurements reported in patent publication US20060177829A1 (NEW YORK UNIVERSITY, published 2006).

Columns and labels:
[1] = target: T1, Flag-tagged β-TrCP1 (Fbw1a) (human, UniProt Q9Y297 1-605); experiment: anti-Flag immunoprecipitation from transfected HeLa cells, blot for Cdc25A
T1 construct: F-box protein expressed from a Flag-tagged construct in HeLa cells and pulled down with anti-Flag resin; also called beta-TrCP1; Flag-beta-TrCP1; not shown: Flag tag
T1 sequence: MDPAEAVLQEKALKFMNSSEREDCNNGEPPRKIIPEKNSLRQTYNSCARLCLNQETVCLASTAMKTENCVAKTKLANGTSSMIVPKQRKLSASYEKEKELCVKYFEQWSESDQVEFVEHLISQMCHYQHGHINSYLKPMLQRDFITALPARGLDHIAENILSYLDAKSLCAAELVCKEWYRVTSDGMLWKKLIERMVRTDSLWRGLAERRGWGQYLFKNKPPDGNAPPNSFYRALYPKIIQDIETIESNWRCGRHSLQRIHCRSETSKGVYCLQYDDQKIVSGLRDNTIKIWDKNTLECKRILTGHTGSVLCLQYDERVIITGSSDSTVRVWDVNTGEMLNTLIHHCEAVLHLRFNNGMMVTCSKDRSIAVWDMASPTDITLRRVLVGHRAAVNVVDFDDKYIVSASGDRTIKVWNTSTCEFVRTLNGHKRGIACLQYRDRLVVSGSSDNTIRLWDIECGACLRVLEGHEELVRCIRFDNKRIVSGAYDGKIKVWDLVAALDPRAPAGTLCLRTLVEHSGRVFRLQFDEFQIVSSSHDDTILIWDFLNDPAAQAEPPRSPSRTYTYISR
Text: (§1) FIG. 1. Cdc25A interacts with beta-TrCP1 and beta-TrCP2 in vivo (I). HeLa cells were transfected with the indicated Flag-tagged F-box protein constructs. F-box proteins were immunoprecipitated from extracts with an anti-Flag resin and immunocomplexes were blotted with Cul1, Cdc25A and Flag specific antibodies.

[2] = target: T2, Flag-tagged β-TrCP2 (Fbw1b) (human, UniProt Q9UKB1 1-542); experiment: as above
T2 construct: F-box protein expressed from a Flag-tagged construct in HeLa cells; also called beta-TrCP2; not shown: Flag tag
T2 sequence: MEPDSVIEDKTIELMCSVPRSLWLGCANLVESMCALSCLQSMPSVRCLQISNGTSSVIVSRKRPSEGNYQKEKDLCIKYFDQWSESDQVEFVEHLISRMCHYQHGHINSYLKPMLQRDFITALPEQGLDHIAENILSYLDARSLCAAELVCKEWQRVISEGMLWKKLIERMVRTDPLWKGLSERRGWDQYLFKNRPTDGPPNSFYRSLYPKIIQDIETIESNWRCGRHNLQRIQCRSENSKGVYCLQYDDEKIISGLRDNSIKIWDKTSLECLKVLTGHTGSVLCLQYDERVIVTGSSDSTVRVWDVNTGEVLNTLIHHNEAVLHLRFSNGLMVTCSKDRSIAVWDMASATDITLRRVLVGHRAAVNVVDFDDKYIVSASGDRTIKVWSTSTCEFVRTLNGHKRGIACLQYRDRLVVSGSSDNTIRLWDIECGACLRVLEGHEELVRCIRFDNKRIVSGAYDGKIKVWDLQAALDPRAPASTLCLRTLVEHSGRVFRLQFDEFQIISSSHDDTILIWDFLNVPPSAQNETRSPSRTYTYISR
Text: as §1

[3] = target: T1, Flag-tagged β-TrCP1 (Fbw1a); experiment: co-expression in HeLa cells, anti-Flag β-TrCP1 immunocomplexes blotted for Cdc25A
Cul1 (endogenous) = target: T3, Cul1 (endogenous) (human, UniProt Q13616 1-776); experiment: Flag-tagged Cdc25A immunocomplexes blotted for Cul1
T3 construct: Human by the cell lines used; also called Cul1 subunit

β-TrCP1 (endogenous) = target: T4, β-TrCP1 (endogenous) (human, UniProt Q9Y297 1-605); experiment: Flag-tagged Cdc25A immunocomplexes blotted for β-TrCP1
T4 construct: also called beta-TrCP
T4 sequence: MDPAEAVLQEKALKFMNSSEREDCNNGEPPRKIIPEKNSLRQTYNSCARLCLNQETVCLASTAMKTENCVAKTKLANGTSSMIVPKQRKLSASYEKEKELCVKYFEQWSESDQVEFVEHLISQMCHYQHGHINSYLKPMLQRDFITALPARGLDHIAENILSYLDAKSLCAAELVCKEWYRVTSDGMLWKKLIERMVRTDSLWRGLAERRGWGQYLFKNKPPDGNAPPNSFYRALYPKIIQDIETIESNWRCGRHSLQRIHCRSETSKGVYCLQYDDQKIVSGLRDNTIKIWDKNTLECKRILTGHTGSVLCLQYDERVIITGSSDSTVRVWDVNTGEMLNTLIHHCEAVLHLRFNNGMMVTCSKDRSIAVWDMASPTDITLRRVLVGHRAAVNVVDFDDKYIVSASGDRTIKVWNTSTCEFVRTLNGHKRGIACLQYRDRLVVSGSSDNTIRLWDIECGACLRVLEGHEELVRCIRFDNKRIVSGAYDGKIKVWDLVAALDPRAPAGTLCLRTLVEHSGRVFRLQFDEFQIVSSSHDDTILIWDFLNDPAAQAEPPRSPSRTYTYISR

Skp1 (endogenous) = target: T5, Skp1 (endogenous) (human, UniProt P63208 2-163); experiment: Flag-tagged Cdc25A immunocomplexes blotted for Skp1
T5 construct: Human by the cell lines used

[4] = target: T6, Flag-tagged Fbw7 (form not stated, FIG. 2) (human, UniProt Q969H0 1-707, limits assumed); experiment: anti-Flag immunoprecipitation from HeLa cells co-transfected with His-Cdc25A, blot for Cdc25A
T6 construct: The Fbw7 of the parallel experiment with overexpressed Cdc25A; not shown: Flag tag

[5] = target: T1, Flag-tagged β-TrCP1 (Fbw1a); experiment: as above
[6] = target: T2, Flag-tagged β-TrCP2 (Fbw1b); experiment: as above
Flag-tagged Skp2 = target: T7, Flag-tagged Skp2 (human, UniProt Q13309 1-424, limits assumed); experiment: as above
T7 construct: not shown: Flag tag
T7 sequence (Q13309 whole entry): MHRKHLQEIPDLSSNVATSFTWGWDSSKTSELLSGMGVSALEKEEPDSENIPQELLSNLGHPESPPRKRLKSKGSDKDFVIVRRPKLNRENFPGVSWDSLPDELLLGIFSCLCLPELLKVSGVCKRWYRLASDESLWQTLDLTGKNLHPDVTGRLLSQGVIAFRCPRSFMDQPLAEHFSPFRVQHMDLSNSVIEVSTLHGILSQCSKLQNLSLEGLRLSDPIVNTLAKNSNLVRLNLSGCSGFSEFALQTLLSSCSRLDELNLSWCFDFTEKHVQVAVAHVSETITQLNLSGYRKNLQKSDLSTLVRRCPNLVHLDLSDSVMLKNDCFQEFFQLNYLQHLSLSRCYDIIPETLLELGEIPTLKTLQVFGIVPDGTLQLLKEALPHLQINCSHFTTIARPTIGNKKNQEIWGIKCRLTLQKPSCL

T6 sequence (Q969H0 whole entry): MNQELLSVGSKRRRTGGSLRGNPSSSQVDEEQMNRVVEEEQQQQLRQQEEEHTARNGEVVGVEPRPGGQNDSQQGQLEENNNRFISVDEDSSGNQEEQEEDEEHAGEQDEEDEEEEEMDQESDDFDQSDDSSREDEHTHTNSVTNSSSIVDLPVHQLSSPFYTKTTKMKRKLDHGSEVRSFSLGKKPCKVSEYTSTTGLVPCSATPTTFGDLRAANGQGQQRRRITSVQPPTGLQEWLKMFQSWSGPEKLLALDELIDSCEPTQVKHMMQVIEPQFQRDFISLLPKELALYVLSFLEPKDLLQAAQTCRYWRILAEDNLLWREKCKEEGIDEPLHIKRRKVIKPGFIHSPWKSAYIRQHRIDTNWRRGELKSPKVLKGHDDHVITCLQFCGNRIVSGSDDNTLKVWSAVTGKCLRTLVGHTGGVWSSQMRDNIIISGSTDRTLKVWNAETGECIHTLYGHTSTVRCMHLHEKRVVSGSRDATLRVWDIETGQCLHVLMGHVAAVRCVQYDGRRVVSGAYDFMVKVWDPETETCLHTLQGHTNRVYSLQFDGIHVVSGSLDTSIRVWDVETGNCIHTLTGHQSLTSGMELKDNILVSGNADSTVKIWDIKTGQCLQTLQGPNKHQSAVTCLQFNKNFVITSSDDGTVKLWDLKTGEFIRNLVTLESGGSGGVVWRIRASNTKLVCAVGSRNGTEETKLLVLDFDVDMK
T5 sequence (P63208 2-163 limits assumed): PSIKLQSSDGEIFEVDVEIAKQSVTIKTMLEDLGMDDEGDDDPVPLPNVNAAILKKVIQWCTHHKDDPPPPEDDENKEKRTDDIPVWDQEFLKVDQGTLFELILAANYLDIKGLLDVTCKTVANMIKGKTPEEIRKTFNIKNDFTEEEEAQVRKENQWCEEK
T3 sequence (Q13616 whole entry): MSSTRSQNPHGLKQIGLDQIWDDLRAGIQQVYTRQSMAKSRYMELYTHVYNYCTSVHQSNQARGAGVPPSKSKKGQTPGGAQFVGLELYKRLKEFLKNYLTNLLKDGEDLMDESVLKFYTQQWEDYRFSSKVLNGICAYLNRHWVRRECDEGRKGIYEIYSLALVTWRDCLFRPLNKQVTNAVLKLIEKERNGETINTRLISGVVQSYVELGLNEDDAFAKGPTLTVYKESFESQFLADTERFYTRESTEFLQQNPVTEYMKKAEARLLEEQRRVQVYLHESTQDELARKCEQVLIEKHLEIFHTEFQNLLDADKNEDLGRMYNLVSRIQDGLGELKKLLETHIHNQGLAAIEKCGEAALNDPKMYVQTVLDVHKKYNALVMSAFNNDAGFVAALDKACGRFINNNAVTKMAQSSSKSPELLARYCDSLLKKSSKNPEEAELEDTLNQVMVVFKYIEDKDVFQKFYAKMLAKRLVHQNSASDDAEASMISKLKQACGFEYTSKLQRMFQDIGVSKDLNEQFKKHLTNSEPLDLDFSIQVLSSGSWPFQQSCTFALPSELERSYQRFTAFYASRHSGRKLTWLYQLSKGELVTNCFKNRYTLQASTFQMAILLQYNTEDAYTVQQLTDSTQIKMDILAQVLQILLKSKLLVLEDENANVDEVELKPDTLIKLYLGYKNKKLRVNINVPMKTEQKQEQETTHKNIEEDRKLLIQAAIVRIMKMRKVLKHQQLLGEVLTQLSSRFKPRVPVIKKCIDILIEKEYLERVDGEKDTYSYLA

B1: Cdc25A (endogenous, HeLa cells) (enzyme)
chain: MELGPSPAPRRLLFACSPPPASQPVVKALFGASAAGGLSPVTNLTVTMDQLQGLGSDYEQPLEVKNNSNLQRMGSSESTDSGFCLDSPGPLDSKENLENPMRRIHSLPQKLLGCSPALKRSHSDSLDHDIFQLIDPDENKENEAFEFKKPVRPVSRGCLHSHGLQEGKDLFTQRQNSAQLGMLSSNERDSSEPGNFIPLFTPQSPVTATLSDEDDGFVDLLDGENLKNEEETPSCMASLWTAPLVMRTTNLDNRCKLFDSPSLCSSSTRSVLKRPERSQEESPPGSTKRRKSMSGASPKESTNPEKAHETLHQSLSLASSPKGTIENILDNDPRDLIGDFSKGYLFHTVAGKHQDLKYISPEIMASVLNGKFANLIKEFVIIDCRYPYEYEGGHIKGAVNLHMEEEVEDFLLKKPIVPTDGKRVIVVFHCEFSSERGPRMCRYVRERDRLGNEYPKLHYPELYVLKGGYKEFFMKCQSYCEPPSYRPMHHEDFKEDLKKFRTKSRTWAGEKSKREMYSRLKKL
modifications: hyperphosphorylated in the form that co-precipitates with beta-TrCP (λ-phosphatase gave a faster migrating band); sites not mapped in that experiment
notes: also called cell division cycle 25A
binding result [1]: binds
binding result [2]: binds

B2: His-tagged Cdc25A DSG2x (enzyme)
chain: MELGPSPAPRRLLFACSPPPASQPVVKALFGASAAGGLSPVTNLTVTMDQLQGLGSDYEQPLEVKNNSNLQRMGSSESTDAGFCLDAPGPLDSKENLENPMRRIHSLPQKLLGCSPALKRSHSDSLDHDIFQLIDPDENKENEAFEFKKPVRPVSRGCLHSHGLQEGKDLFTQRQNSAQLGMLSSNERDSSEPGNFIPLFTPQSPVTATLSDEDDGFVDLLDGENLKNEEETPSCMASLWTAPLVMRTTNLDNRCKLFDSPSLCSSSTRSVLKRPERSQEESPPGSTKRRKSMSGASPKESTNPEKAHETLHQSLSLASSPKGTIENILDNDPRDLIGDFSKGYLFHTVAGKHQDLKYISPEIMASVLNGKFANLIKEFVIIDCRYPYEYEGGHIKGAVNLHMEEEVEDFLLKKPIVPTDGKRVIVVFHCEFSSERGPRMCRYVRERDRLGNEYPKLHYPELYVLKGGYKEFFMKCQSYCEPPSYRPMHHEDFKEDLKKFRTKSRTWAGEKSKREMYSRLKKL
notes: not shown: His tag
binding result [3]: no binding

B3: Flag-tagged Cdc25A DSG2x (enzyme)
chain: MELGPSPAPRRLLFACSPPPASQPVVKALFGASAAGGLSPVTNLTVTMDQLQGLGSDYEQPLEVKNNSNLQRMGSSESTDAGFCLDAPGPLDSKENLENPMRRIHSLPQKLLGCSPALKRSHSDSLDHDIFQLIDPDENKENEAFEFKKPVRPVSRGCLHSHGLQEGKDLFTQRQNSAQLGMLSSNERDSSEPGNFIPLFTPQSPVTATLSDEDDGFVDLLDGENLKNEEETPSCMASLWTAPLVMRTTNLDNRCKLFDSPSLCSSSTRSVLKRPERSQEESPPGSTKRRKSMSGASPKESTNPEKAHETLHQSLSLASSPKGTIENILDNDPRDLIGDFSKGYLFHTVAGKHQDLKYISPEIMASVLNGKFANLIKEFVIIDCRYPYEYEGGHIKGAVNLHMEEEVEDFLLKKPIVPTDGKRVIVVFHCEFSSERGPRMCRYVRERDRLGNEYPKLHYPELYVLKGGYKEFFMKCQSYCEPPSYRPMHHEDFKEDLKKFRTKSRTWAGEKSKREMYSRLKKL
notes: Point mutant of the full-length pCDNA3.1-Flag-Cdc25A construct; also called DSG2x mutated protein; DSG2x protein; not shown: Flag tag from pCDNA3.1-Flag vector
binding result (Cul1 (endogenous)): no binding
binding result (β-TrCP1 (endogenous)): no binding
binding result (Skp1 (endogenous)): no binding

B4: His-tagged Cdc25A DSG3x (enzyme)
chain: MELGPSPAPRRLLFACSPPPASQPVVKALFGASAAGGLSPVTNLTVTMDQLQGLGSDYEQPLEVKNNSNLQRMGSSEATDAGFCLDAPGPLDSKENLENPMRRIHSLPQKLLGCSPALKRSHSDSLDHDIFQLIDPDENKENEAFEFKKPVRPVSRGCLHSHGLQEGKDLFTQRQNSAQLGMLSSNERDSSEPGNFIPLFTPQSPVTATLSDEDDGFVDLLDGENLKNEEETPSCMASLWTAPLVMRTTNLDNRCKLFDSPSLCSSSTRSVLKRPERSQEESPPGSTKRRKSMSGASPKESTNPEKAHETLHQSLSLASSPKGTIENILDNDPRDLIGDFSKGYLFHTVAGKHQDLKYISPEIMASVLNGKFANLIKEFVIIDCRYPYEYEGGHIKGAVNLHMEEEVEDFLLKKPIVPTDGKRVIVVFHCEFSSERGPRMCRYVRERDRLGNEYPKLHYPELYVLKGGYKEFFMKCQSYCEPPSYRPMHHEDFKEDLKKFRTKSRTWAGEKSKREMYSRLKKL
notes: not shown: His tag
binding result [3]: no binding

B5: His-Cdc25A (overexpressed wild type) (enzyme)
chain: MELGPSPAPRRLLFACSPPPASQPVVKALFGASAAGGLSPVTNLTVTMDQLQGLGSDYEQPLEVKNNSNLQRMGSSESTDSGFCLDSPGPLDSKENLENPMRRIHSLPQKLLGCSPALKRSHSDSLDHDIFQLIDPDENKENEAFEFKKPVRPVSRGCLHSHGLQEGKDLFTQRQNSAQLGMLSSNERDSSEPGNFIPLFTPQSPVTATLSDEDDGFVDLLDGENLKNEEETPSCMASLWTAPLVMRTTNLDNRCKLFDSPSLCSSSTRSVLKRPERSQEESPPGSTKRRKSMSGASPKESTNPEKAHETLHQSLSLASSPKGTIENILDNDPRDLIGDFSKGYLFHTVAGKHQDLKYISPEIMASVLNGKFANLIKEFVIIDCRYPYEYEGGHIKGAVNLHMEEEVEDFLLKKPIVPTDGKRVIVVFHCEFSSERGPRMCRYVRERDRLGNEYPKLHYPELYVLKGGYKEFFMKCQSYCEPPSYRPMHHEDFKEDLKKFRTKSRTWAGEKSKREMYSRLKKL
notes: also called overexpressed Cdc25A; not shown: His tag
binding result [4]: no binding
binding result [5]: binds
binding result [6]: binds
binding result (Flag-tagged Skp2): no binding
